Experimental data from patent US20210221885A1.

Biological target: Eu3+ cryptate labeled TIM3 (Cisbio kit, cat# 63ADK000CTLPEB) (human) (UniProt Q8TDQ0)
Assay: HTRF blocking assay (Cisbio kit), antibody added to a mixture of Tim3-EuK and Tag-Gal9; blocked ligand galectin-9; the unit is that of the concentration axis

Eu3+ cryptate labeled TIM3 (Cisbio kit, cat# 63ADK000CTLPEB) (human), sequence (Q8TDQ0 22-202 limits assumed): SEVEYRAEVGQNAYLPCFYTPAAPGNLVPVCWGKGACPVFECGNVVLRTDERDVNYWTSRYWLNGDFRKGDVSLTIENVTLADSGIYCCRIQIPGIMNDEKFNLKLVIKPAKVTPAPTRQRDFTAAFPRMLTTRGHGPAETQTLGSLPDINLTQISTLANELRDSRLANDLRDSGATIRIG

For “F38-2E2 (ebioscience, cat#16-3109-85) (antibody)”, the IC50 was 5.74 nM.
